According to patent publication US20170240645A1 (Genentech, published 2017):
Where a chain is given by its changes, count along the chain named.

Key:
human PMEL17 [1] = biological target: T1, human PMEL17 (human, UniProt P40967 25-661); experiment: flow cytometry on parental and in vivo-derived resistant UACC-257X2.2 melanoma cells, detected with anti-human Alexa 488 conjugate; control peak is secondary antibody only
T1 construct: Untagged PMEL17 as it occurs on melanoma cell lines, normal human melanocytes, PC3 cells stably expressing PMEL17 cDNA, and in human tissue sections; also called Melanocyte protein PMEL17
T1 sequence: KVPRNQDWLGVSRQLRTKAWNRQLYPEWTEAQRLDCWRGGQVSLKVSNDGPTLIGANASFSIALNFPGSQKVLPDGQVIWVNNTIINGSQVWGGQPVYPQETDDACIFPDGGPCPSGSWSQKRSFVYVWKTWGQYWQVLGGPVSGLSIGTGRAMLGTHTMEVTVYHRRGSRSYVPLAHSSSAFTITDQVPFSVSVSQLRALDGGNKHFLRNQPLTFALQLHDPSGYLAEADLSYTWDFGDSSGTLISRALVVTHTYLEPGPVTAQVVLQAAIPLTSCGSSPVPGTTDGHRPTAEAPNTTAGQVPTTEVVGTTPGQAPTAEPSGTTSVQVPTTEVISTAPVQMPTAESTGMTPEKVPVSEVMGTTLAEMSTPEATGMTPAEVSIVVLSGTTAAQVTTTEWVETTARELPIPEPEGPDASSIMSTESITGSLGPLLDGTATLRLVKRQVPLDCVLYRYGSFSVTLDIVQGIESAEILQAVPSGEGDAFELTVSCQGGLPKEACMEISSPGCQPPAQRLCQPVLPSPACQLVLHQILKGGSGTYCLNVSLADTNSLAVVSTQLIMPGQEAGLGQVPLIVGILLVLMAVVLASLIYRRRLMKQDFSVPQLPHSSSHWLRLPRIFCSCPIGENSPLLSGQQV
Procedure: Expression of ETBR and PMEL17 on the surface of the in vivo- and in vitro-derived resistant UACC-257X2.2 cells and the parental UACC-257X2.2 cells was then determined by FACS. Cells were stained with anti-ETBR antibody (hu5E9.v1 or ch5E9) or with anti-PMEL17 antibody (ch17A9), followed by an anti-human Alexa 488 antibody conjugate. […] Surface expression of PMEL17 was unchanged in the resistant cells as compared to the parental cells.

human PMEL17 [2] = biological target: T1, human PMEL17; experiment: FACS screen of hybridoma clones
[3] = biological target: T2, endothelin B receptor (ETBR) (UniProt P24530 27-442, limits assumed); experiment: cell-based or functional assay
T2 sequence (looked up): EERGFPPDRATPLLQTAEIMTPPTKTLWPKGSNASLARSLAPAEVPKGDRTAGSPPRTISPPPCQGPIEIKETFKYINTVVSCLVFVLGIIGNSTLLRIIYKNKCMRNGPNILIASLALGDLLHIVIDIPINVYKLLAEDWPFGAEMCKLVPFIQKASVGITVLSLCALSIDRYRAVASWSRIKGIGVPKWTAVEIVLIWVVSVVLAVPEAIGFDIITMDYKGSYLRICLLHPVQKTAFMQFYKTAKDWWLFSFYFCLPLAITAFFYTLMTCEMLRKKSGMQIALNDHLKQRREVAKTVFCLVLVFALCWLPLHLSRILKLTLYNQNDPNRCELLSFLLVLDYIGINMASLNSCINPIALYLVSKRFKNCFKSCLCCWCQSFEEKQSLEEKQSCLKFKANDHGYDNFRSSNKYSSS

B1: ch17A9 (antibody, human IgG1, kappa, V domains shown)
VH: EVQLQQSGPELVKPGASMKISCKSSGYSFTRYTMNWVKQSHGKNLEWIGVINPYNGGTVYNQKFKGKATLTVDKSSSTAYMELLSLTSEDSAVYYCARTDYDGYAMDYWGQGTSVTVSS
VL: DVQITQSPSYLAASPGETITINCRATKSISKYLAWYQEQPGKTNNLLIYSGSTLQSGIPSRFSGSGSGTDFTLTISSLEPEDFAMYYCQQHNEYPYTFGSGTKLEIKR
notes: also called chimeric 17A9
- binding result (human PMEL17 [1]): binds

B2: 8G3 (antibody, V domains shown)
VH: B1 VH with K19R, S24A, R31G, I51Y, A79T, Y101S, D102G, Y108C
VL: DVQITQSPSYLDASPGETITINCRASKTISKYLAWYQEKPGKTNKLLIYSGSTLQSGIPSRFSGSGSGTDFTLTISSLEPEDFAMYYCQQHNEYPYTFGSGTKLEIK
notes: Mouse monoclonal antibody from a hybridoma
- binding result (human PMEL17 [2]): binds

B3: anti-ETBR-PNU (ch5E9 conjugated to MC-PNU-159682 through a non-cleavable linker) (antibody, human IgG1, kappa, V domains shown)
VH: QVQLLQSGAELARPGASVKLSCKASGYTFTSYWMQWVKQRPGQGLEWIGTIYPGDGDTSYAQKFKGKATLTTDKYSSTAYMQLSSLASEDSAVYYCARWGYAYDIDNWGQGTLVTVSS
VL: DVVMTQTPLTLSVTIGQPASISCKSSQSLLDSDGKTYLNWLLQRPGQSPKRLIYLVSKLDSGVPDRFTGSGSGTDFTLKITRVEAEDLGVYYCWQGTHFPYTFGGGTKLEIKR
modifications: MC-PNU-159682 on reduced cysteine residues of the antibody
- EC50 of cell survival (CellTiter-Glo), in vitro derived resistant UACC-257X2.2 cells [3]: 0.0146 µg/mL
- EC50 of cell survival (CellTiter-Glo), in vivo derived resistant UACC-257X2.2 cells [3]: 0.0143 µg/mL
- EC50 of cell survival (CellTiter-Glo), parental UACC-257X2.2 cells [3]: 0.0042 µg/mL

B4: 15F2 (antibody, V domains shown)
VH: QVQLKESGPGLVAPSQSLSITCTVSGFSLTKYGVHWVRQPPGKGLEWLGVIWAGGNTNYNSALMSRLSINKDNSKSQVFLKMNSLQTDDTAMYYCATFDVWGAGTTVTVSS
VL: DIVMTQAAPSVPVTPGESVSISCRSSKSLLHSNGNTFLYWFLQRPGQSPQLLIYRMSNLVSGVPDRFSGSGSGTAFTLRISRVEAEDVGFYYCMQHLEYPYTFGGGTKLELK
notes: as for B2
- binding result (human PMEL17 [2]): binds
